Assay results as given in paper PMC9022596, “Convergent Evolution of Antibiotic Tolerance in Patients with Persistent Methicillin-Resistant Staphylococcus aureus Bacteremia” (Infection and Immunity, 2022).

Assays:
[1] = tested on: CC(=O)SCCNC(=O)CCNC(=O)[C@H](O)C(C)(C)COP(=O)(O)OP(=O)(O)OC[C@H]1O[C@@H](n2cnc3c(N)ncnc32)[C@H](O)[C@@H]1OP(=O)(O)O; assay: purified protein; details: OAA fixed at 0.5 mM, 0.1 mM DTNB, 100 mM Tris-HCl pH 8.0, room temperature
[2] = tested on: O=C(O)CC(=O)C(=O)O; assay: purified protein; details: AcCoA fixed at 0.3 mM, 0.1 mM DTNB, 100 mM Tris-HCl pH 8.0, room temperature

Substance: S. aureus citrate synthase (CS, citZ) (Staphylococcus aureus subsp. aureus USA300)
- Km [1]: 0.29 (95% CI 0.25 to 0.32) mM
- kcat [1]: 41 (95% CI 39 to 43) s-1
- Km [2]: 0.03 (95% CI 0.02 to 0.04) mM
- kcat [2]: 30 (95% CI 28 to 32) s-1
